Results taken from patent publication CN112552406A (WUJIANG NOVOPROTEIN SCIENT INC, dated 2021).

T1: 人CD73 on SK-OV-3细胞 (人卵巢腺癌细胞) (human, UniProt P21589 27-549)
T1 construct: whole, on cells; CD73-positive human cell line; also called SK-OV-3细胞上CD73; 人CD73阳性细胞
T1 sequence (looked up): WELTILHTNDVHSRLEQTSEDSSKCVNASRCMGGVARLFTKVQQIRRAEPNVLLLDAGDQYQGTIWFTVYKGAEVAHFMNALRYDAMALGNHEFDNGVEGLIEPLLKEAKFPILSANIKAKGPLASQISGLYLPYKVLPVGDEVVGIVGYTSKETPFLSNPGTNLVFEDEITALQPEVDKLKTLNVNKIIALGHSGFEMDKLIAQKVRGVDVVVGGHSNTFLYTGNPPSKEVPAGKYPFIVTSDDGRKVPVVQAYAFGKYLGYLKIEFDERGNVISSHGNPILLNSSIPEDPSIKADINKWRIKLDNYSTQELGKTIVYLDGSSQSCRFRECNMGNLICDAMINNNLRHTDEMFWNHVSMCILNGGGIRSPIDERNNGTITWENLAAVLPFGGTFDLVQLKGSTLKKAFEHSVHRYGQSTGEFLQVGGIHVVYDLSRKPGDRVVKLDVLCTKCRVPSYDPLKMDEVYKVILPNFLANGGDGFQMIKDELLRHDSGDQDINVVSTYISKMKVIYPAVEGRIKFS

T2: 猴CD73全长 on CHOK1-cynoCD73细胞 (猴 (cyno), UniProt A0A2K5V5U7 27-549)
T2 construct: whole, on cells; also called 猴CD73阳性细胞
T2 sequence: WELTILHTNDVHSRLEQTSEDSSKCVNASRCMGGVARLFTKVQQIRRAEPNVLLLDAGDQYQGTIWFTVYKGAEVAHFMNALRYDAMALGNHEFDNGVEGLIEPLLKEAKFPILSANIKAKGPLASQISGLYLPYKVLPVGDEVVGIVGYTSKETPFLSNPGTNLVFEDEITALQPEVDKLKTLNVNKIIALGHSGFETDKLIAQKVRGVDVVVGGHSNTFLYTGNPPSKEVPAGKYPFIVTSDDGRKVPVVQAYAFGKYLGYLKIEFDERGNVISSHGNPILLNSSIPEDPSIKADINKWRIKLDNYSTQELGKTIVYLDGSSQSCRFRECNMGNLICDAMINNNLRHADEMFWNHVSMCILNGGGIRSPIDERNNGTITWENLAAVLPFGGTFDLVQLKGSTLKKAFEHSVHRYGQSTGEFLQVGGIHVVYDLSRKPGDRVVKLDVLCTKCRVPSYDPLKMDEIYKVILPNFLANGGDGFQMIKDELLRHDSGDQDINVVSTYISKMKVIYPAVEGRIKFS

T3: 重组猴CD73蛋白 (猴 (monkey; cyno per the cell line name), UniProt A0A2K5V5U7 27-547)
T3 sequence: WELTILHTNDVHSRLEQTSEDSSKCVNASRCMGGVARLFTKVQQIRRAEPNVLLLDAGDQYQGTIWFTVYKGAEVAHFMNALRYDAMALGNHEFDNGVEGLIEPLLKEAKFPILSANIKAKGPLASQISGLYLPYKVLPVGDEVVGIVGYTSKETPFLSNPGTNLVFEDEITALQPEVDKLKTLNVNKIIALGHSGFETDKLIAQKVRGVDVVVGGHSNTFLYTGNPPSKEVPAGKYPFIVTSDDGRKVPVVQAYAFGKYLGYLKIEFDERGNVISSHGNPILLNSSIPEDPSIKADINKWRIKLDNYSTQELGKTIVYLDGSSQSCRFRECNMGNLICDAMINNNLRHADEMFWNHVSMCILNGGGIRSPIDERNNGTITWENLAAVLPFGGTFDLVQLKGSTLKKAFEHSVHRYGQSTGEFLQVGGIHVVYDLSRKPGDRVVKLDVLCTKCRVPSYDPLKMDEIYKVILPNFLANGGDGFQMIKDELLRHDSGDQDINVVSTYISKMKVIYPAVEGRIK

T4: 重组人CD73蛋白 (human, UniProt P21589 27-547)
T4 construct: also called rhCD73; 重组hCD73蛋白
T4 sequence (looked up): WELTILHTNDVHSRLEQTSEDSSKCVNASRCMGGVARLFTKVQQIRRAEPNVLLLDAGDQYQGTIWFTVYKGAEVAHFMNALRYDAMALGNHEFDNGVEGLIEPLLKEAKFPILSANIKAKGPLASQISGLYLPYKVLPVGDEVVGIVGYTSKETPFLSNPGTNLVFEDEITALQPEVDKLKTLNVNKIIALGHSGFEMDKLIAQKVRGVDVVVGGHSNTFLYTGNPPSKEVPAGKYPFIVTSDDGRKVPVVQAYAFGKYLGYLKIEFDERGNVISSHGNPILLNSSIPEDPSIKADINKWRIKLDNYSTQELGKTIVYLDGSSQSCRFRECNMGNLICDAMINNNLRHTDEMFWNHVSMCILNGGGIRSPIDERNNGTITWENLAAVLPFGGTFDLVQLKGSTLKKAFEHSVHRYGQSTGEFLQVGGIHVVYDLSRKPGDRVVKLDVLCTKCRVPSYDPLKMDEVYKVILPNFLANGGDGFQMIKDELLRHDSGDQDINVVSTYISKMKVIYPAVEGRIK


How the values were obtained:
[1] = biological target: T1, 人CD73 on SK-OV-3细胞 (人卵巢腺癌细胞); assay: flow cytometry on SK-OV-3 cells, Anti-hFC-APC detection
[2] = biological target: T2, 猴CD73全长 on CHOK1-cynoCD73细胞; assay: flow cytometry on CHOK1-cynoCD73 cells, Anti-hFC-APC detection
[3] = biological target: T1, 人CD73 on SK-OV-3细胞 (人卵巢腺癌细胞); assay: cell-based or functional assay
[4] = biological target: T2, 猴CD73全长 on CHOK1-cynoCD73细胞; assay: cell-based or functional assay
重组猴CD73蛋白 = biological target: T3, 重组猴CD73蛋白; assay: ELISA, recombinant monkey CD73 coated at 3μg/ml
重组人CD73蛋白 = biological target: T4, 重组人CD73蛋白; assay: Biacore (SPR), CQ137 immobilised, CD73 protein 2.5nM-40nM
[5] = biological target: T1, 人CD73 on SK-OV-3细胞 (人卵巢腺癌细胞); assay: flow cytometry on SK-OV-3 cells

Binder	EC50 [1]	EC50 [2]	binding result [5]	also measured
MEDI-9447 (antibody, V domains shown) VH: EVQLLESGGGLVQPGGSLRLSCAASGFTFSSYAYSWVRQAPGKGLEWVSAISGSGGRTYYADSVKGRFTISRDNSKNTLYLQMNSLRAEDTAVYYCARLGYGRVDEWGRGTLVTVSS VL: QSVLTQPPSASGTPGQRVTISCSGSLSNIGRNPVNWYQQLPGTAPKLLIYLDNLRLSGVPDRFSGSKSGTSASLAISGLQSEDEADYYCATWDDSHPGWTFGGGTKLTVLG	9.63 ng/mL	4.12 ng/mL		
CQ137抗体蛋白 (人鼠嵌合的抗CD73全长抗体) (antibody, human IgG1, kappa, V domains shown) VH: EVQLQQSGPELVKPGASVKISCKASGYSFTGYYIHWVKQSHVKSLEWIGRINPYNGATTYNQNFKDKASLTVDKSSSTAYMELHSLTSEDSAVYYCARFHYGAPDYWGQGTTLTVSS VL: DILMTQSPSSMYASLGERVTITCKASQDINTYLTWFQQKPGKSPKTLIYRANILVDGVPSRFSGSGSGQDYSLTISSLEFEDMGIYYCLQYDEFPLTFGAGTKLELKR	0.588 ng/mL	0.0999 ng/mL		IC50, SK-OV-3细胞上CD73酶活抑制 (CellTiter-Glo) [3]: 371 ng/mL; IC50, CHOK1-cynoCD73细胞上CD73酶活抑制 (CellTiter-Glo) [4]: 990 ng/mL; EC50 (重组猴CD73蛋白): 217 ng/mL; Kd (重组人CD73蛋白): 0.0865 nM
人源化CQ137单抗(137-2) (antibody, V domains shown, also called hCQ137) VH: QVQLVQSGAEVKKPGASVKVSCKASGYSFTGYYIHWVRQAPGQGLEWMGRINPYNGATTYNQNFKDRVTMTVDKSTSTAYMELRSLRSDDTAVYYCARFHYGAPDYWGQGTLVTVSS VL: DIQMTQSPSSLSASVGDRVTITCKASQDINTYLTWFQQKPGKAPKSLIYRANILVDGVPSRFSGSGSGTDFTLTISSLQPEDFATYYCLQYDEFPLTFGGGTKVEIKR			binds	

Continued, in another order:

EC50 [1]	EC50 [2]	binding result [5]	Binder	also measured
		binds	人源化CQ137单抗(137-3) (antibody, V domains shown, also called hCQ137) VH: QVQLVQSGAEVKKPGSSVKVSCKASGYSFTGYYIHWVRQAPGQGLEWMGRINPYNGATTYNQNFKDRVTITVDKSTSTAYMELSSLRSEDTAVYYCARFHYGAPDYWGQGTLVTVSS VL: DIQMTQSPSSLSASVGDRVTITCKASQDINTYLTWYQQKPGKAPKTLIYRANILVDGVPSRFSGSGSGTDFTLTISSLQPEDFATYYCLQYDEFPLTFGGGTKVEIKR	
		binds	人源化CQ137单抗(137-1) (antibody, V domains shown, also called hCQ137) VH: QVQLVQSGAEVKKPGASVKVSCKASGYTFTGYYIHWVRQAPGQGLEWMGRINPYNGATTYNQNFKDRVTMTVDKSTSTAYMELRSLRSDDTAVYYCARFHYGAPDYWGQGTLVTVSS VL: DIQMTQSPSSLSASVGDRVTITCKASQDINTYLTWFQQKPGKAPKTLIYRANILVDGVPSRFSGSGSGQDYTLTISSLQPEDFATYYCLQYDEFPLTFGGGTKVEIKR	
